# Source: US20180120332A1 (CLEMSON UNIVERSITY RESEARCH FOUNDATION, published 2018)
# Ends that are not written are not given here.
# Molecular target: αvβ3 integrin on human umbilical vein endothelial cells (HUVECs) (human, UniProt P06756 31-1048; P05106 27-788)
# Experiment: cell-based or functional assay
# Chain of αvβ3 integrin on human umbilical vein endothelial cells (HUVECs) (P06756 31-1048, chain 1 of 2): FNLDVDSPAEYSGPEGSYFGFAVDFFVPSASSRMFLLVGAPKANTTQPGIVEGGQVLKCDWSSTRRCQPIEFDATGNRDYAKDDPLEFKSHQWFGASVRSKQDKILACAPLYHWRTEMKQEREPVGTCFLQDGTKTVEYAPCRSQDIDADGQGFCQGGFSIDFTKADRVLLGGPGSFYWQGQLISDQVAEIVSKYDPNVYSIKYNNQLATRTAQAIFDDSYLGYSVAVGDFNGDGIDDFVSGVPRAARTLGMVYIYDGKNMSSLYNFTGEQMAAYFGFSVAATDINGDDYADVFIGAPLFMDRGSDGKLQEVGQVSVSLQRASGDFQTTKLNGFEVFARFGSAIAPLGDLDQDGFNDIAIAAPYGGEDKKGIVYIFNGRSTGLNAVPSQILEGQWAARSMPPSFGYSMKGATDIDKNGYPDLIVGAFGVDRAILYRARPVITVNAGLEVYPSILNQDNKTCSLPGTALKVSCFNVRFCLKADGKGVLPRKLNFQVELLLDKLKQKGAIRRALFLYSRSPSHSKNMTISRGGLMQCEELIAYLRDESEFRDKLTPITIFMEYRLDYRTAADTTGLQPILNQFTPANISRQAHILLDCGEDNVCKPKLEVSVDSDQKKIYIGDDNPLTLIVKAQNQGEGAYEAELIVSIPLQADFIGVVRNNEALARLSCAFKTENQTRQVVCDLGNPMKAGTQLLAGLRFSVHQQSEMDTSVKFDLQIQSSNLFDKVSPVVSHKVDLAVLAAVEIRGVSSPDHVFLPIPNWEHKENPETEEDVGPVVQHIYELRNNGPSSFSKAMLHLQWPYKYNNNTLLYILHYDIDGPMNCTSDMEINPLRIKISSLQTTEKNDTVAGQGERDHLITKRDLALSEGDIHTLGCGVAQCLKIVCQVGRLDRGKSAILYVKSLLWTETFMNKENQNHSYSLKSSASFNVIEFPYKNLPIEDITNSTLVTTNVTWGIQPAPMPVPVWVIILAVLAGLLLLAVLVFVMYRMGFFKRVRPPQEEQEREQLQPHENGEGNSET
# Chain of αvβ3 integrin on human umbilical vein endothelial cells (HUVECs) (P05106 27-788, chain 2 of 2): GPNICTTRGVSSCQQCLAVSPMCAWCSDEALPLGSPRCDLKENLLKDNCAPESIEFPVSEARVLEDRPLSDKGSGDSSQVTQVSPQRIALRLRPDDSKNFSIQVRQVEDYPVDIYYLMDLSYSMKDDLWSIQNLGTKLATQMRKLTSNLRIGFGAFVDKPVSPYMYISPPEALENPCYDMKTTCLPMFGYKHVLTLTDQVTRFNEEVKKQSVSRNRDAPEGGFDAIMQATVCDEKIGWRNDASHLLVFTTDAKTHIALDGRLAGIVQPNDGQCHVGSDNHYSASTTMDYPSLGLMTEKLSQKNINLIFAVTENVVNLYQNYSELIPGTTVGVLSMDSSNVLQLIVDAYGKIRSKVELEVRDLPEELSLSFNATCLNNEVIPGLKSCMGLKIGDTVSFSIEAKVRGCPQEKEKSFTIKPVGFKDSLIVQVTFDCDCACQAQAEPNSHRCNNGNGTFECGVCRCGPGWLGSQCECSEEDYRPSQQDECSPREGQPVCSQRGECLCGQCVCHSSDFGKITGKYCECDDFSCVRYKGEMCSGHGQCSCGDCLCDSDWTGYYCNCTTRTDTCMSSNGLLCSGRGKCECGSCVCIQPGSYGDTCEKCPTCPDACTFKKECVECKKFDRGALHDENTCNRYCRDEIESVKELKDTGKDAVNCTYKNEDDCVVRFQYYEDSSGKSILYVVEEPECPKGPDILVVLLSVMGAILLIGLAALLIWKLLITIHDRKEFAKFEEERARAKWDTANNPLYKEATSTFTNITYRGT
row,Binder,decrease in HUVEC adhesion on peptide functionalized alginate when αvβ3 integrin is blocked
1,"TFALRGDNP (also: N-terminus conjugated to oxidized alginate (EDC-NHS) or methacrylated and co-polymerized with PEGDA) [α1 peptide (TFALRGDNP), RGD peptide derived from laminin α1 subunit]",~60%
2,RGDS (also: N-terminus conjugated to oxidized alginate (EDC-NHS) or methacrylated and co-polymerized with PEGDA) [RGDS peptide],~35%
3,RGDSP (also: N-terminus conjugated to oxidized alginate (EDC-NHS) or methacrylated and co-polymerized with PEGDA) [RGDSP peptide],~35%
